# Data as given in paper PMC11099136, “Structure, mechanism, and evolution of the last step in vitamin C biosynthesis” (Nature Communications, 2024).
# T1: vGalDH (synthetic construct, UniProt Z9D058OTD2)
# T1 construct: SUMO cleaved for crystals; noncovalent FAD
# T1 sequence (Z9D058OTD2 110-619): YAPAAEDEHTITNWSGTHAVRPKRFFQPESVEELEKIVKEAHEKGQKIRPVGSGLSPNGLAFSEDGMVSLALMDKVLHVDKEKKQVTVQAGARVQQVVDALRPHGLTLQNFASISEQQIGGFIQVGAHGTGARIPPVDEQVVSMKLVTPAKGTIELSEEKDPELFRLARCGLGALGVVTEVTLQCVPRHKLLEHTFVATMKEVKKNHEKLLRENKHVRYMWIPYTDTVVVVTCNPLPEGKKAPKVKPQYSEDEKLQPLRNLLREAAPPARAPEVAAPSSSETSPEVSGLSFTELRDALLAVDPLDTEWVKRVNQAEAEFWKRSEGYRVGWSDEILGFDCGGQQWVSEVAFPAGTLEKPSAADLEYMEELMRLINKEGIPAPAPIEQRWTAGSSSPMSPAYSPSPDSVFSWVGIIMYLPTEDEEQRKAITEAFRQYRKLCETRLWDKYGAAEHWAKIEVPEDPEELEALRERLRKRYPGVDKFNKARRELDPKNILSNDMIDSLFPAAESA
# Tests used:
# [1] = target: T1, vGalDH; experiment: cytochrome c reduction at […] nm, Michaelis-Menten fit; type: biochemical; conditions: 50 μM equine cytochrome c, 50 mM potassium phosphate pH 8, 25 °C
# [2] = substrate: O=C1O[C@H](CO)[C@@H](O)[C@@H]1O; experiment: oxygen consumption (Oxygraph), Michaelis-Menten fit; type: biochemical, synthetic construct; conditions: oxygen as co-substrate, 50 mM potassium phosphate pH 8, 25 °C
# [3] = substrate: O=C1O[C@H]([C@@H](O)CO)[C@@H](O)[C@@H]1O; experiment: as above; type: biochemical, synthetic construct; conditions: oxygen as co-substrate, 50 mM potassium phosphate pH 8, 25 °C
# [4] = substrate: O=C1O[C@H]([C@@H](O)CO)[C@H](O)[C@@H]1O; experiment: as above; type: biochemical, synthetic construct; conditions: oxygen as co-substrate, 50 mM potassium phosphate pH 8, 25 °C
# [5] = substrate: O=C1O[C@H](CO)[C@@H](O)[C@@H]1O; experiment: as above; type: biochemical, synthetic construct; conditions: oxygen as co-substrate, 50 mM potassium phosphate pH 8, 25 °C; remark: listed apart in the source
# Experimental: (§1) oxygen consumption (Oxygraph), Michaelis-Menten fit on tGULO | KM values in the sub-millimolar range were measured for mGULO and tGULO | also L-galactono-1,4-lactone (i.e.: GalDH substrate; Fig. 1A) and D-arabino-1,4-lactone (ALO substrate) are effectively oxidized
# [6] = substrate: O=C1O[C@H]([C@@H](O)CO)[C@@H](O)[C@@H]1O; experiment: as above; type: biochemical, synthetic construct; conditions: oxygen as co-substrate, 50 mM potassium phosphate pH 8, 25 °C; remark: listed apart in the source
# Experimental: as §1
# [7] = substrate: O=C1O[C@H]([C@@H](O)CO)[C@H](O)[C@@H]1O; experiment: as above; type: biochemical, synthetic construct; conditions: oxygen as co-substrate, 50 mM potassium phosphate pH 8, 25 °C; remark: listed apart in the source
# Experimental: as §1
# [8] = substrate: O=C1O[C@H](CO)[C@@H](O)[C@@H]1O; experiment: as above; type: biochemical, synthetic construct; conditions: oxygen as co-substrate, 50 mM potassium phosphate pH 8, 25 °C; remark: listed apart in the source
# Excerpt: (§2) oxygen consumption (Oxygraph), Michaelis-Menten fit on cGULO
# [9] = substrate: O=C1O[C@H]([C@@H](O)CO)[C@@H](O)[C@@H]1O; experiment: as above; type: biochemical, synthetic construct; conditions: oxygen as co-substrate, 50 mM potassium phosphate pH 8, 25 °C; remark: listed apart in the source
# Excerpt: as §2
# [10] = substrate: O=C1O[C@H]([C@@H](O)CO)[C@H](O)[C@@H]1O; experiment: as above; type: biochemical, synthetic construct; conditions: oxygen as co-substrate, 50 mM potassium phosphate pH 8, 25 °C; remark: listed apart in the source
# Excerpt: as §2
# [11] = substrate: O=C1O[C@H](CO)[C@@H](O)[C@@H]1O; experiment: as above; type: biochemical, synthetic construct; conditions: oxygen as co-substrate, 50 mM potassium phosphate pH 8, 25 °C; remark: listed apart in the source
# Excerpt: (§3) oxygen consumption (Oxygraph), Michaelis-Menten fit on mGULO
# [12] = substrate: O=C1O[C@H]([C@@H](O)CO)[C@@H](O)[C@@H]1O; experiment: as above; type: biochemical, synthetic construct; conditions: oxygen as co-substrate, 50 mM potassium phosphate pH 8, 25 °C; remark: listed apart in the source
# Excerpt: as §3
# [13] = substrate: O=C1O[C@H]([C@@H](O)CO)[C@H](O)[C@@H]1O; experiment: as above; type: biochemical, synthetic construct; conditions: oxygen as co-substrate, 50 mM potassium phosphate pH 8, 25 °C; remark: listed apart in the source
# Excerpt: as §3
molecule,measurement,setting,value
"O=C1O[C@H]([C@@H](O)CO)[C@H](O)[C@@H]1O [L-gulono-1,4-lactone]",Km,[1],2100 ± 300 µM
"O=C1O[C@H]([C@@H](O)CO)[C@@H](O)[C@@H]1O [L-galactono-1,4-lactone]",Km,[1],16.6 ± 2.6 µM
"O=C1O[C@H](CO)[C@@H](O)[C@@H]1O [D-arabino-1,4-lactone]",Km,[1],1100 ± 100 µM
"jGULO (synthetic construct) (protein, His-SUMO fusion from pBAD in E. coli; membrane-associated, purified in reduced Triton X-100; covalent FAD) MVQGTEGYKFQNWAQTYSCQPELYFEPTSVEEIRQILELARQRSKRVKVVGCGHSPSDIACTDDYMIRMNKMNKILKVDKEKRQVTVEAGILLSDLNEELAKHGLALSNLGAVSDVTVAGVIGTGTHNTGIQHGILATQVVALTLMTASGEILECSESVNKEIFQAARLHLGALGVILTVTFQCEPAFRLHQQQFPSTLTEVLDNLDTHLKKSEYFRFLWFPHTDHVTVFYADRTDKPVQSTSSWFWDYAIGYYLLEFLLWISTFFPRLVPWINRFFFWLLYSAKVERVNRSDKVFNFECLFKQHVSDWAIPIEKTKAALLQLKEWLENNPDVRAHFPVEVRFVRADDILLSPCYQRDSCYINIIMYRPYGKDVPRERYWAAYEDIMKKVGGRPHWAKAHSCTRKDFEKMYPAFQKFCSIREKLDPSGMFLNTYLEKVFF",Km,[2],10700 ± 2500 µM
same,kcat,[2],2.9 ± 0.3 s⁻¹
same,Km,[3],7100 ± 800 µM
same,kcat,[3],8.0 ± 0.3 s⁻¹
same,Km,[4],6900 ± 600 µM
same,kcat,[4],3.9 ± 1.3 s⁻¹
"tGULO (synthetic construct) (protein, His-SUMO fusion from pBAD in E. coli; membrane-associated, purified in reduced Triton X-100; covalent FAD) MVQGHGGYKFQNWAQTYGCSPELYFQPTSVEEIKEILDLARQRSKRVKVVGGGHSPSDIACTDDFMIHMNKMNKILKVDKEKKQVTVEAGILLSDLNEELSKHGLALSNLGAVSDVAAAGVIGTGTHNTGIQHGILATQVVALTLMTASGEILECSESVNAELFQAARLHLGCLGVILTVTFQCVPAFHLQETQFPSTLKEVLDNLDSHLKKSEYFRFLWFPHTENVSVIYQDRTDKPPSSSANWFWDYAIGYYLLEFLLWISTFLPRLVPWINRFFFWLLYSGKVERVNLSYKVFNYECRFKQHVQDWAIPIEKTKEALLELKAWLESNPKVVAHFPVEVRFARGDDILLSPCYQRDSCYMNIIMYRPYGKDVPRQQYWLAYENIMKKVGGRPHWAKAHTCTRKDFEKMYPGFQKFCSIREKLDPTGMFLNTYLEKVFY",Km,[5],9400 ± 900 µM
same,kcat,[5],2.9 ± 0.1 s⁻¹
same,Km,[6],5400 ± 1200 µM
same,kcat,[6],1.3 ± 0.1 s⁻¹
same,Km,[7],800 ± 200 µM
same,kcat,[7],7.3 ± 0.5 s⁻¹
"cGULO (synthetic construct) (protein, His-SUMO fusion from pBAD in E. coli; membrane-associated, purified in reduced Triton X-100; covalent FAD) MATGMKGYKFTNWAKTYSCQPELYFEPTTTEEIRQILELARQHSKRVKVVGCGHSPSDIACTTDYMISMKKFNKVLEVDKEKCQVTVQAGILLKDLNEELPKHGMALSNLGAVSDITVAGVISTGTHGTGVNYGILATHVVELTLMTASGEILKCSREENKDIFLAALCGLGALGIILTVTIQCEPAFKLHQKQFPCTLDEVLDNLDTHLKSSEHFRFMWFPHTDHVVVFHANRTDKPVQSTSSWFWDYLVGYYLLEFLLWISTFFPSLVPWINRFFFWLLYSQPKERVDRSDKVFNFECLFKQYVTEWAIPREKTAAVLLELKDWLESNPDFHAHFPVEVRFVRADDIYLSPCYQRDSCYINIIMYRPYGKDVPREKYWAAYEDIMMKVGGRPHWAKAHKVTAKDFQKMYPKFEKFCSIREKLDPQGMFLNSYLERVFF",Km,[8],48600 ± 24000 µM
same,kcat,[8],0.6 ± 0.1 s⁻¹
same,kcat/Km,[8],12.3 M⁻¹ s⁻¹
same,Km,[9],11800 ± 1200 µM
same,kcat,[9],3.5 ± 0.3 s⁻¹
same,kcat/Km,[9],300 M⁻¹ s⁻¹
same,Km,[10],6100 ± 700 µM
same,kcat,[10],3.2 ± 0.1 s⁻¹
same,kcat/Km,[10],520 M⁻¹ s⁻¹
"mGULO (synthetic construct) (protein, His-SUMO fusion from pBAD in E. coli (tag kept in stopped-flow); membrane-associated, purified in reduced Triton X-100; covalent FAD) MVHGHKGVKFQNWAKTYGCSPEMYFQPTSVEEIREVLDLARQQNKRVKVVGGGHSPSDIACTDGFMIHMGKMNRILKVDKEKKQVTVEAGILLADLNVELSKHGLALSNLGAVSDVTAAGVIGTGTHNTGIKHGILATQVVALTLLTASGTILECSESSNAELFQAARVHLGCLGVILTVTFQCVPQFHLQETSFPSTLKEVLDNLDSHLKKSEYFRFLWFPHSENVSVIYQDHTNKPPSSSANWFWDYAIGFYLLEFLLWISTFLPCLVPWINRFFFWLLFTGKVENSNLSYKIFNYECRFKQHVQDWAIPIEKTKEALLELKAMLESNPKVVAHYPVEVRFTRGDDILLSPCFQRDSCYMNIIMYRPYGKDVPRLDYWLAYETIMKKVGGRPHWAKAHTCTRKDFEKMYPAFQKFCAIREKLDPTGMFLNAYLEKVFY",Km,[11],3300 ± 400 µM
same,kcat,[11],0.5 ± 0.1 s⁻¹
same,kcat/Km,[11],150 M⁻¹ s⁻¹
same,Km,[12],1900 ± 200 µM
same,kcat,[12],4.2 ± 0.1 s⁻¹
same,kcat/Km,[12],2200 M⁻¹ s⁻¹
same,Km,[13],800 ± 100 µM
same,kcat,[13],6.1 ± 0.1 s⁻¹
same,kcat/Km,[13],7600 M⁻¹ s⁻¹
